Columns and labels:
[1] = molecular target: T1, PIP4K2C on the HuProt human proteome microarray (human, UniProt Q8TBX8 1-421); assay: peptide or protein array; Cy3-tagged His-WDR73 incubated on the HuProt v4.0 20K Human Proteome Microarray (purified human proteins as N-terminal GST fusions) overnight at 4 °C, washed, scanned; candidates by Z-score > 3; settings: both partners purified
T1 construct: PIP4K2C, phospholipid kinase, human; spotted on the array as N-terminal GST fusion; source: bought: HuProt v4.0 20K Human Proteome Microarray (CDI Laboratories), purified human proteins; not shown: GST, N-terminal, kept
T1 sequence (looked up): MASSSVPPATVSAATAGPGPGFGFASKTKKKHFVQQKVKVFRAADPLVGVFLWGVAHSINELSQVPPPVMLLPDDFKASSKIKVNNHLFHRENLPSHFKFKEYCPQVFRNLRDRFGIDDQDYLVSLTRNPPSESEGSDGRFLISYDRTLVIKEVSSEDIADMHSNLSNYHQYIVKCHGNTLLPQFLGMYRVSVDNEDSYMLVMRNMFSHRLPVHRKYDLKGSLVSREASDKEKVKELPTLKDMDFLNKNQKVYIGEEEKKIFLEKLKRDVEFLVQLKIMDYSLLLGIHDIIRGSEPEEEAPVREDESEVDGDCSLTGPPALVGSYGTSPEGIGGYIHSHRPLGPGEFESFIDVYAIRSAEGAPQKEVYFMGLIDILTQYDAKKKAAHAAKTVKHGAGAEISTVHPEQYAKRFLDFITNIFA

[2] = molecular target: T2, PIP4K2A on the HuProt human proteome microarray (human, UniProt P48426 1-406); assay: as above; settings: both partners purified
T2 construct: PIP4K2A, human; spotted on the array as N-terminal GST fusion; source: bought: HuProt v4.0 20K Human Proteome Microarray (CDI Laboratories), purified human proteins; not shown: GST, N-terminal, kept
T2 sequence (looked up): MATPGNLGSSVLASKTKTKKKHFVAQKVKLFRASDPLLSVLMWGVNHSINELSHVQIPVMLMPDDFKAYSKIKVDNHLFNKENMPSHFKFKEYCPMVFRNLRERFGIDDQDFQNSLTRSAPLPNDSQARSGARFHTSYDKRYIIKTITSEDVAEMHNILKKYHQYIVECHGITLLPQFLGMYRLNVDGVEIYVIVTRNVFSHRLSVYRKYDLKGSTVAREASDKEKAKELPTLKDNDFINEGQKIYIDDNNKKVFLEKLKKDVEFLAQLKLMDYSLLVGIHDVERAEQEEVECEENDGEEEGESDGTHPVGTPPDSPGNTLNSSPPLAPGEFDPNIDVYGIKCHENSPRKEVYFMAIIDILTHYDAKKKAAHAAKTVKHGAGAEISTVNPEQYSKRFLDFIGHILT

binding result [1]: binds | binding result [2]: binds
B1: Cy3-tagged His-WDR73 (natural protein, human, UniProt Q6P4I2 1-378, looked up)
chain: MDPGDDWLVESLRLYQDFYAFDLSGATRVLEWIDDKGVFVAGYESLKKNEILHLKLPLRLSVKENKGLFPERDFKVRHGGFSDRSIFDLKHVPHTRLLVTSGLPGCYLQVWQVAEDSDVIKAVSTIAVHEKEESLWPRVAVFSTLAPGVLHGARLRSLQVVDLESRKTTYTSDVSDSEELSSLQVLDADTFAFCCASGRLGLVDTRQKWAPLENRSPGPGSGGERWCAEVGSWGQGPGPSIASLGSDGRLCLLDPRDLCHPVSSVQCPVSVPSPDPELLRVTWAPGLKNCLAISGFDGTVQVYDATSWDGTRSQDGTRSQVEPLFTHRGHIFLDGNGMDPAPLVTTHTWHPCRPRTLLSATNDASLHVWDWVDLCAPR
modifications: labeled with Cy3 (CyDye Protein Labelling CY3 MONO 5-PACK, GE)
notes: WDR73 (WD40-repeat-containing protein), human; Probe of the HuProt microarray; also called recombinant His-WDR73 fusion protein; purified human WDR73 protein; source: recombinant, purified by MerryBio Co., Ltd

Reference: article PMC9598763, “WDR73 Depletion Destabilizes PIP4K2C Activity and Impairs Focal Adhesion Formation in Galloway–Mowat Syndrome” (Biology, 2022)
